Laboratory results as given in paper PMC4070925.

Target: thrombin (UniProt P00734;P00734 315-363;364-622)
Test: plate binding assay (streptavidin-peroxidase); Thrombin-coated plate; 5'-biotin aptamer in HEPES buffer (full composition not in material) 1 h; washes 40 mM HEPES pH 7.5, 0.05% Tween-20; block 1 mg/ml BSA +

Row | Binder | apparent K (half saturation)
1 | Bivalent Linker 3 (structured_DNA) DNA: AGATGCCTGTCGAGCATGCTGGTTGGTGTGGTTGGGTAGGGGCCCAGCATGACAGTTTTTGCCAAAGTCCGTGGTAGGGCAGGTTGGGGTGACTGTAGCTAAACTGCTTTGTCGACGGG | 0.4 nM
2 | Truncate II (structured_DNA) DNA: AGATGCCTGTCGAGCATGCTGGTTGGTGTGGTTGGTTGGTTGGCGTTCAAAGCAGTCTTGGGCTAAGTCCGTGGTAGGGCAGGTTGGGGTGACT | 0.5 nM
3 | Bivalent Linker 6 (structured_DNA) DNA: AGATGCCTGTCGAGCATGCTGGTTGGTGTGGTTGGCGGGGGCCCTCTATAGTTGCGTTCTGGATGAGTCCGTGGTAGGGCAGGTTGGGGTGACTGTAGCTAAACTGCTTTGTCGACGGG | ~20 nM
4 | Bivalent Linker 2 (structured_DNA) DNA: AGATGCCTGTCGAGCATGCTGGTTGGTGTGGTTGGTTGGTTGGCGTTCAAAGCAGTCTTGGGCTAAGTCCGTGGTAGGGCAGGTTGGGGTGACTGTAGCTAAACTGCTTTGTCGACGGG | 0.2 nM
5 | AGTCCGTGGTAGGGCAGGTTGGGGTGACT (structured_DNA) [Apt-29] | 0.7 nM
6 | Bivalent Linker 5 (structured_DNA) DNA: AGATGCCTGTCGAGCATGCTGGTTGGTGTGGTTGGAAGTAGGTGGTTCAAAGCAGTGAAGGGTACAGTCCGTGGTAGGGCAGGTTGGGGTGACTGTAGCTAAACTGCTTTGTCGACGGG | 1 nM
7 | Truncate III (structured_DNA) DNA: GGTTGGTGTGGTTGGTTGGTTGGCGTTCAAAGCAGTCTTGGGCTAAGTCCGTGGTAGGGCAGGTTGGGGTGACT | 0.5 nM
8 | Truncate I (structured_DNA) DNA: GGTTGGTGTGGTTGGTTGGTTGGCGTTCAAAGCAGTCTTGGGCTAAGTCCGTGGTAGGGCAGGTTGGGGTGACTGTAGCTAAACTGCTTTGTCGACGGG | 1 nM
9 | Bivalent Linker 1 (structured_DNA) DNA: AGATGCCTGTCGAGCATGCTGGTTGGTGTGGTTGGATTGGGGGGCAGAATGCCAGTTTAGCGTACAGTCCGTGGTAGGGCAGGTTGGGGTGACTGTAGCTAAACTGCTTTGTCGACGGG | 1.4 nM
10 | Bivalent Linker 4 (structured_DNA) DNA: AGATGCCTGTCGAGCATGCTGGTTGGTGTGGTTGGGTTGTGGGGAATAAAAGCAGTTTAGCGTACAGTCCGTGGTAGGGCAGGTTGGGGTGACTGTAGCTAAACTGCTTTGTCGACGGG | 0.4 nM
